For experiment [1], the target named is recombinant fragment of human VE-cadherin extracellular region, CAD 1-4 fragment (Asp48-Glu478, preceded by Met), SEQ ID NO: 4 (human) (UniProt P33151). Kind of experiment: SDS-PAGE and western blot of the purified fragment with BV9.
The target is the same in experiment [2]. As to the kind of experiment: sandwich ELISA, BV9 capture, rabbit polyclonal detection; CAD1-4 at 5 ng/mL. A general note: ELISA stands for enzyme-linked immunosorbent assay.
Experiment [3] shares this target. As to the kind of experiment: sandwich ELISA, BV9 capture, rabbit polyclonal detection; CAD1-4 at 10 ng/mL.
Experiment [4] shares this target. As to the kind of experiment: sandwich ELISA, BV9 capture, rabbit polyclonal detection; CAD1-4 at 1.25 ng/mL.
The target is the same in experiment [5]. Kind of experiment: sandwich ELISA, BV9 capture, rabbit polyclonal detection; CAD1-4 at 10 ng/mL; first replicate.
Experiment [6] has the same target. As to the kind of experiment: sandwich ELISA, BV9 capture, rabbit polyclonal detection; CAD1-4 at 2.5 ng/mL; first replicate.
For experiment [7] the target is unchanged. As to the kind of experiment: sandwich ELISA, BV9 capture, rabbit polyclonal detection; CAD1-4 at 1.25 ng/mL; first replicate.
The target is the same in experiment [8]. Kind of experiment: sandwich ELISA, BV9 capture, rabbit polyclonal detection; CAD1-4 at 2.5 ng/mL; second replicate.
Experiment [9] has the same target. Kind of experiment: sandwich ELISA, BV9 capture, rabbit polyclonal detection; CAD1-4 at 10 ng/mL; mean OD minus OD at 0 ng/mL.
Experiment [10] shares this target. Kind of experiment: sandwich ELISA, BV9 capture, rabbit polyclonal detection; CAD1-4 at 2.5 ng/mL; mean OD minus OD at 0 ng/mL.
The target is the same in experiment [11]. As to the kind of experiment: sandwich ELISA, BV9 capture, rabbit polyclonal detection; CAD1-4 at 0.63 ng/mL; mean OD minus OD at 0 ng/mL.
The target is the same in experiment [12]. Described as above. This is another data set of the same source.

UniProt P33151, sequence (P33151 other isoform, or with tags, fused parts or gaps limits assumed): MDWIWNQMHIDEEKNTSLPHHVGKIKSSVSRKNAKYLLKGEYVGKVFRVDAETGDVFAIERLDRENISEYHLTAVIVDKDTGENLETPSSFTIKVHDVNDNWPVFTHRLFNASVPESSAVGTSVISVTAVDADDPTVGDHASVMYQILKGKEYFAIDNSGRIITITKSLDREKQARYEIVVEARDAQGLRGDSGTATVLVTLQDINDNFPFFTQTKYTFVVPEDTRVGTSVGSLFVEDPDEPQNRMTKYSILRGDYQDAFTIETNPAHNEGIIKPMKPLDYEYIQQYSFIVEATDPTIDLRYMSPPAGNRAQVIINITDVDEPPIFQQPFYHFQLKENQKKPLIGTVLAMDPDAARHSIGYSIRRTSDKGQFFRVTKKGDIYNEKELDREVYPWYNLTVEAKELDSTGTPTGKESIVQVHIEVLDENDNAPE

Turning to “anti-VEcadherin mouse mAb, clone BV9 (Abcam, product datasheet ab7047) (antibody)”, in experiment [1], the lowest detectable quantity was found to be 1 ng. Also, the values for the OD1 in experiment [2], in experiment [3] and in experiment [4] were 1.31 OD, 1.76 OD and 0.867 OD, respectively. Besides, the OD2 in experiment [2] was 1.21 OD; in [3] it was 1.76 OD; in experiment [4], 0.829 OD. In addition, the mean OD in [2] turned out to be 1.26 OD; in experiment [3], 1.76 OD; in experiment [4] it was 0.848 OD. For the same substance, the OD in experiment [5] was determined as 1.9 OD; in experiment [6] it was 1.26 OD; in [7], 1.07 OD; in [8], 1.09 OD. In addition, the Corr. OD was 1.06 OD in experiment [9], 0.288 OD in experiment [10], 0.087 OD in [11] and 0.051 OD in experiment [12].

(Values after US20100120171A1.)
